From article PMC8861093 (2022)

Molecular target: WDR5 (Homo sapiens, UniProt P61964)
Test: biolayer interferometry

Kd: 460 nM
B1: MLL4Win (peptide)
chain: LNPHGAARAEVYLR
